Protease stability score data for 19 sequences are collected here from the NTF2 design screens of Basanta et al. (2020).

A short description of this data set: protease stability score; higher = more stable; yeast display proteolysis, trypsin and chymotrypsin.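 Note: relative to predicted unfolded state with 0 unfolded-like and 1 meaning tenfold more protease.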
Consider “DDIKHEILRLMQLAFHYWETGDWEHFHHLADPHVRIDLDFNGKRLDLHGRDELQRVLEEELKRIDHFELHVTSLTDQGNKAELHGHRHIHQGDKRIDVRVINILIVVDGRIKTYSVHIR”, for which the protease stability score came out at 0.909.
In turn, “SEEERATEYVLSMLLHLLRTGDEDALFEMADPRYRFIYGEKEKVGRHVIHEFITHLRIDDFRLRRLEIQGDKIITDGEMYGTINGQHETRRVILIMRKINGRWFLESIEIR” returned a protease stability score of 1.7.
The figure for “SEDDELIKKYIKRWLHDLVTGDEDSLEELIDPNARLDINGKELIGREWVERVTKELRIEHINPRSVRSINGKVEIETEVHVNVNGVKIILDRHLDIHKVNGKWIVKEVRVK” is 1.14; for “DEEEEHLRKMTKLLWDQIHTGDEKDFLRLADPNARFEVEINGRKYEAHGREEIKHMLHDILELLGIDHVRLRDLELQGNKVILHSDTHVNGQDSKMRIEILIVNGRLKSFKIQTL” it is 0.995.
“SEEEEQVERAIKLTEELIDTGNWKEISKLADPNARLNVNGREFHGREMVSENIKRFFEELGVDHIEVKHIRIQGNKVEVDTELRVGDKYHDLHLLFLKVNGQWLLKEVTVR” registered a protease stability score of 1.22.
Regarding “SEDEELVRKATEDFINMHRTGDEDELRKMMDPDDKLRIGDKEVIGREAVITWLMEWLKKMGVNHIRFHRVHLFDGKIHVDGELHIGDKEFEIHIFALKINGRWIRESEEIK”, the protease stability score was 1.39.
In the case of “SEEEEMLKHALEILTEVTDTGNWEEYEKLLDPDVRVHIGDKTLVGMEEILRYWMEYFKSLGVDHVETRVKEISHQGDKMHMDTTLRIHQGDKDLEFHVEIHAEKVNGRWFIKEINFE” it was 1.75; in that of “SEEDKETKIALEISEKILETGDWEELSKNLDPDARFTFENRTHVGREEVSELLLKLIKEMGVNHVNIEDNDLQGDKIILIVEVRVGDKRVNLEIIAVKVNGRWRIHSIHERHE”, 0.884.
The figure for “DEHKEILREYAKKFLNDVMTGDEDEIEHLADPHARVEIGDKDIHGWEQWIKHLSRTWKELRIEDYRIRSIELVNGVVHLDTHLHIRIGDKRFDTQVEIHLVVINGKVKSVRVDIR” is 1.12; for “DESEDAVRKSMELWEESMRTGNEERLIELVDPNVRLDINGQIYHGWSQFVEVIFNEFRHARLESIEIHEVRLQGDKIRSRTTLVIRINGRLKHLDVRFIVKKVDGRWQIHSEERE” it is 1.31; for “HELLEHVKKIIEMWNKLLHTGDEETLNKLLDPRVRIHVNGRELIGREAVETELREIRFEITYTHVKEVDVVGDKVHVNTLLDGEFRIGNFVIRTRTDARLHLLKVDGKWLLESLHVT” it is 1.24.
For “TEEEEEARRALEEWIHNLMTGDEKRELELADPHVRILIDINGREIHMHGWEQFERWVHEEMRRLGLDRFEVRLEHIEIQGDKSVLDGRINYNGVDERNNIILVVVDGKLRQIRIHVI”, the protease stability score amounted to 1.95.
“DHEEEKLKESLDRLEDINRTGDWHKIHDMLDPHVRVLVNGRKHHGRETATHIYREWRITDIQFKDIRLIGDKVHIHMESRVSVNGREHSVKSELILIKVDGQWYMHAEQFL” registered a protease stability score of 1.05.
With “REEEELLKKLADHWWENVRTGDERRMRELFDPNTQFVIEVGDKKFTRHGRDELVHSLEHARIHDFHIKDQRPQGDFIEVEGEIDGEIDGRRFRTDVRVWIVIVNGRLKQIHIHVG”, the protease stability score stood at 1.15.
“TEEEHLLKKLAELVWEAVETGDEDFLKKLVDPHTRLHVDGREHHGREDFIEILTRMGVDHHRLEHFRVIDGKLFIDGHFNFNGRYFRVHIIFIIINGRAKEFWMRTE” registered a protease stability score of 1.66.
In the case of “REEDKEFEDAVKTILHSFLTGDFDLLIKLLDPNVRIRFENVDLVGWSEYLRRLEEFGVKVHRTKRSDIRYINGVAVVIIDGEMEYGDKKTKVELNFVMQKYDGRWRTQSIHEKEH” it was 1.12.
The figure for “DEEDRHLEEFIRLWLHFFFTGDWEFHMKNADPNVKLDAENRSVHGRDDASRTLVEIVRRLGIDHVELKDSHVIDGVIELHLELKIGDKRRTMHIHINIFNGRIRSVRIHFS” is 1.28; for “SEEEEKIKKLHTDWLHLLLTGDEDRLKQLMDPHAKISIEQGDFHLDLHGREDIIEFYWEERHRIDHLDIRVRHIEVWNGKIITKEENRIDFNGRKHVTEVDLEIEIVDGKFRSLHIRIH” it is 1.02.
In the case of “DERDEMSRHLVRLWIRLYRTGDWKELYDNLDPNARLIIGDKEYHGREEVVEIFLELAKRFKNVKVEFKEIHFQGDKMTLREEVRQGDWRVEVIIKVEFIDGKLHHVQIIFG” it was 2.75.
